These results are taken from publication PMC3660254, “Control of Translation and miRNA-Dependent Repression by a Novel Poly(A) Binding Protein, hnRNP-Q”.

This data set has as its target T1, hnRNP-Q2 (SYNCRIP, hnRNP-Q isoform 2) (mouse (cDNA from Krebs-2 cells), UniProt Q7TMK9-2 1-562).
T1 sequence: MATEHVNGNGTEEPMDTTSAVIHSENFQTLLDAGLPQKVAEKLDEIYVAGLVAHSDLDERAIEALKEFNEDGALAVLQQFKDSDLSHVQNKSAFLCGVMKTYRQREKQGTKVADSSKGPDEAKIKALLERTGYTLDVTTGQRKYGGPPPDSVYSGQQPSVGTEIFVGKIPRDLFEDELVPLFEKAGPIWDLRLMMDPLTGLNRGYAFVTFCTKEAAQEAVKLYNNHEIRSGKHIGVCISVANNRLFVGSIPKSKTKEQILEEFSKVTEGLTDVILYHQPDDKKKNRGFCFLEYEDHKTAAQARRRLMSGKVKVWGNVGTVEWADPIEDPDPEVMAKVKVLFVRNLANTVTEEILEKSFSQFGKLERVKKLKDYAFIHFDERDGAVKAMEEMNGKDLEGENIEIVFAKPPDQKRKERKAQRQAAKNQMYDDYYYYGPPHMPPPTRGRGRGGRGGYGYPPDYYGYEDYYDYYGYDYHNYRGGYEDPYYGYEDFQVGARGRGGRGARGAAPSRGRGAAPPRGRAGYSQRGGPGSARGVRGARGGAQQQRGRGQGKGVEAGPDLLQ
Kind of data set: EMSA; apparent Kd, 2 mM Mg2+; three experiments; EMSA: 20 mM HEPES-KOH pH 7.3, ~100 mM KCl, 2 mM MgCl2, 1 mM DTT, 0.05% NP40, 5% glycerol, 0.1 mg/ml acetylated BSA (plus 2 ul protein in buffer A), 30 C 30 min, gel at 4 C; UV crosslinking in nuclease-treated RRL. Conditions: protein: recombinant; tags: C-terminal His6 (pET28a); label: 5' 32P; single strand.

B1: oligo(A)30 (ssRNA)
RNA: AAAAAAAAAAAAAAAAAAAAAAAAAAAAAA
Regarding B1, the Kd is about 30 nM.
